Paper PMC3328597

Tests used:
[1] = biological target: His161 (UniProt position 161, …); test: NMR; conditions: 50 mM NaCl; 20 mM Tris acetate; free Thr171-phosphorylated peptide, no RNA
[2] = biological target: His168 (UniProt position 168, …); test: NMR; conditions: 50 mM NaCl; 20 mM Tris acetate; free Thr171-phosphorylated peptide, no RNA

## HLRQPGIHPKTPNKFKKYSR
[1]
  pKa: 6.4
[2]
  pKa: 5.6
